From PMC11134608, “UBR5 forms ligand-dependent complexes on chromatin to regulate nuclear hormone receptor stability” (Molecular cell, 2023)

Molecular target: Full-length human FLAG-UBR5 (human) (UniProt O95071)
Assay: SEC-MALS; purified UBR5 full length and Δtandem variant
Conditions: remark: other sources report otherwise

Full-length human FLAG-UBR5, O95071 1-2799
stoichiometry N: 4
